A word on the Kd: it is the free concentration of one partner at which half of the binding sites on the other are occupied at equilibrium, for simple one-to-one binding. Higher therefore signals lower affinity. For orientation: koff means a measure of how fast the partners let go of each other. A lower koff goes with slow dissociation. Usually kon stands for a measure of how fast the partners come together. A low value points to slow association. What is called EC50 is the concentration giving half of the maximal effect. The low end stands for a more potent agent, the high end for a less potent agent.

The values below come from patent CN115819596A (YOUMAI BIOTECHNOLOGY LIANYUNGANG CO LTD, dated 2023).

The target of test [1] is 人CD47蛋白 (human CD47 protein) (human, UniProt Q08722 19-139, limits assumed). Briefly: SPR (Biacore 8K), antibody captured on protein A chip, human CD47 protein as analyte. A general note: Surface plasmon resonance follows binding to a sensor surface in real time, without labels.
In test [2] the target is T1, 人CEACAM5蛋白 (human CEACAM5 protein) (human, UniProt P06731 35-685, limits assumed).
T1 construct: Soluble protein used for ELISA coating and as SPR analyte; The construct is not described
T1 sequence (looked up): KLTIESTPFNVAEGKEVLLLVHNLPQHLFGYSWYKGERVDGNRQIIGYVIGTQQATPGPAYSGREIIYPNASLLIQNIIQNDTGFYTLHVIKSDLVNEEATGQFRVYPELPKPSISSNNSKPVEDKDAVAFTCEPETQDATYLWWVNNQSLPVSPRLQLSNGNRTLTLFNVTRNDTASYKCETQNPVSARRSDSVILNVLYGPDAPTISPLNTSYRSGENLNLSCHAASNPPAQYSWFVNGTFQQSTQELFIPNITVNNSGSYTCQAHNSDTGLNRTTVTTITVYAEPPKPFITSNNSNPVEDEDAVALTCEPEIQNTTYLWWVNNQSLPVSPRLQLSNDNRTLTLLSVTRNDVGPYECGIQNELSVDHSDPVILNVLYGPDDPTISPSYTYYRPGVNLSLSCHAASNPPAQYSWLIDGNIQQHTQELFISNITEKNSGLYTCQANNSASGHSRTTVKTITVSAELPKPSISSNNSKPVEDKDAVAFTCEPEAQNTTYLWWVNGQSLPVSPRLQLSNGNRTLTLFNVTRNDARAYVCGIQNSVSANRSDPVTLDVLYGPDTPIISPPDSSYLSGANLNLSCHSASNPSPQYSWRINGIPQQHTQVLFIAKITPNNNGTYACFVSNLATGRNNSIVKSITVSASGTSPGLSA
Put plainly: SPR (Biacore 8K), antibody captured on protein A chip, human CEACAM5 protein as analyte.

The next test deals with T2, CD47 on A549 cells (human, UniProt Q08722 19-323).
T2 construct: whole, on cells; A549 cells also express CEACAM5; also called A549细胞上CD47
Put plainly: grade of blocking of SIRPα-mouse Fc binding to CD47 on A549 cells, flow cytometry (reference antibody).

For test [3], the target named is T3, 人CEACAM6 on CHO cells (CHO-CEACAM6) (human, UniProt P40199 35-320).
T3 construct: whole, on cells
T3 sequence (looked up): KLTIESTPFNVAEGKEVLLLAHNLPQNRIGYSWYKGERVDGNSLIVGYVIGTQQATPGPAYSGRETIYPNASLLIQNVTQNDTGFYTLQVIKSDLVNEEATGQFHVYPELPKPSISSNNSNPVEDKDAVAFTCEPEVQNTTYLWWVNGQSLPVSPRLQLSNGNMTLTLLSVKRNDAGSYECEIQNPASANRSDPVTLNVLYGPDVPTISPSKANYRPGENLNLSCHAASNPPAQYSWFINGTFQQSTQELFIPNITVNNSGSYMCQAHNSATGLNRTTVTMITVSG
Put plainly: flow cytometry on CHO-CEACAM6 stable cells. In general terms: A flow cytometer gives signals particle by particle.

In test [4] the target is 食蟹猴CEACAM5蛋白 (cynomolgus CEACAM5 protein) (cynomolgus monkey). Put plainly: ELISA, plate-coated cynomolgus CEACAM5 protein. (In general: ELISA stands for enzyme-linked immunosorbent assay.)
In test [5] the target is T1, 人CEACAM5蛋白 (human CEACAM5 protein). Briefly: SPR (Biacore), antibody captured on protein A chip, CEACAM5 protein as analyte.
Test [6] shares this target. Put plainly: SPR (Biacore), antibody captured on protein A chip; the text value differs tenfold from Table 8.
The target of test [7] is T4, 人CEACAM5 on CHO cells (CHO-CEACAM5) (human, UniProt P06731 35-685).
T4 construct: whole, on cells; also called 过表达人CEACAM5的CHO细胞
T4 sequence (looked up): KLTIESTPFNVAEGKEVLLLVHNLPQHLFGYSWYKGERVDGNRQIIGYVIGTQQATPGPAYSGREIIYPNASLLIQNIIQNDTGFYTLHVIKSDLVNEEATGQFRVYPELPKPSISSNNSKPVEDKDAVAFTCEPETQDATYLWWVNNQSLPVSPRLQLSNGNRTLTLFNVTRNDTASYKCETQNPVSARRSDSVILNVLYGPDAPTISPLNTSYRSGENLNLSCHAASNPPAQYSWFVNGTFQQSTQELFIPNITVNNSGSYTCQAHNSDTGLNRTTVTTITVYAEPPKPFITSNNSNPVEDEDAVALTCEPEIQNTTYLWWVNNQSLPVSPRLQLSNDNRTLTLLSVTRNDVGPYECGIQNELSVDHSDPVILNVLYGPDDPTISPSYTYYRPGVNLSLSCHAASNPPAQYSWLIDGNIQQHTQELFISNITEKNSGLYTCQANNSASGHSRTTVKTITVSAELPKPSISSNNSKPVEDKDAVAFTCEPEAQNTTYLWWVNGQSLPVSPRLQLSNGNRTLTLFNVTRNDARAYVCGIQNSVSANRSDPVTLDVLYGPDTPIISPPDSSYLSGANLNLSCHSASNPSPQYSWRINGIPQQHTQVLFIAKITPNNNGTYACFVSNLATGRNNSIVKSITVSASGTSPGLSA
Put plainly: flow cytometry on CHO cells overexpressing human CEACAM5.

In test [8] the target is T1, 人CEACAM5蛋白 (human CEACAM5 protein). Put plainly: ELISA, plate-coated human CEACAM5 protein, goat anti-human IgG HRP.

B1: UM11-L34 (bispecific antibody)
chain 1: not shown
chain 2: DIQMTQSPSSLSASVGDRVTITCGASENIYGTLNWYQQKPGKSPKLLIYGATNLADAVPSRFSGSGSGTDYTLTISSLQPEDVATYYCQNVLSIPYTFGGGTKVEIKRTVAAPSVFIFPPSDEQLKSGTASVVCLLNNFYPREAKVQWKVDNALQSGNSQESVTEQDSKDSTYSLSSTLTLSKADYEKHKVYACEVTHQGLSSPVTKSFNRGEC
For B1, in test [1], binding was characterised by a dissociation constant (Kd) of 65.7 nM, the koff is 0.0451 s⁻¹ and the kon was found to be 686000 M⁻¹ s⁻¹. In test [2], this molecule registered a Kd of 7.43 nM, a koff of 0.000173 s⁻¹ and a kon of 23300 M⁻¹ s⁻¹.

B2: UM03-C4 (antibody, V domains shown)
VH: QVQLVESGGGVVQPGGSLRLSCAASGFTFSDYGMAWIRQAPGKGPEWIAFITNLASSIYYADTVTGRFTISRDNSKNTLYLQMNSLRAEDTAVYYCARAGDYRSFPYWGQGTLVTVSA
VL: EIVLTQSPATLSLSPGERATLSCSASSSVNYVNWYQQKPGQAPRILIYGISNLASGVPARFSGSGSGTDFTLTISSLEPEDFAVYYCQQRSTFPPYTFGQGTKLEIK
notes: IgG4 subtype of the humanized anti-human CD47 antibody; also called 人源化CD47单克隆抗体; CD47抗体的IgG4亚型
B2: the binding result with CD47 on A549 cells is listed as “binds”.

B3: UM05-L9 (antibody, human IgG1, kappa, V domains shown)
VH: QVQLQQSGPELVRPGVSVKISCKGSGYTFTDYAMHWVKQSHAKSLEWIGVISTYSGHTNYNQKFKGKAIMTVDKSSSTAYMDLARLTSEDSAIYYCVRGSTTAHYYTMDFWGQGTSVTVSS
VL: DIQMTQSPVSLSASVGETVTITCGASENIYGTLNWYQRKQGKSPQLLIYGATNLADGVSSRFSGSGSGRQYSLKISSLHPDDVATYYCQNVLSIPYTFGGGTKLEIKR
notes: also called 人-鼠嵌合抗体UM05-L9; 嵌合抗体UM05-L9
For the molecule B3, the binding result in test [3] is given as “binds”. For the same molecule, the EC50 in test [4] was determined as 0.678 nM. Further, in test [5], the dissociation constant (Kd) turned out to be 6.8 nM, the koff amounted to 0.000445 s⁻¹ and the kon turned out to be 65400 M⁻¹ s⁻¹. This molecule also yielded a Kd in [6] of 0.68 nM.

B4: UM05-C9 (antibody, V domains shown)
VH: QVQLVQSGAEVKKPGASVKVSCKASGYTFTDYAMHWVRQAPGQGLEWIGVISTYSGHTNYNQKFKGRAIMTRDKSISTAYMELSRLRSDDTAVYYCVRGSTTAHYYTMDFWGQGTTVTVSS
VL: DIQMTQSPSSLSASVGDRVTITCGASENIYGTLNWYQQKPGKSPKLLIYGATNLADAVPSRFSGSGSGTDYTLTISSLQPEDVATYYCQNVLSIPYTFGGGTKVEIK
notes: Humanized anti-human CEACAM5/6 antibody; Only the variable domains are tied to it by name; Detected with goat anti-human IgG; also called 人源化抗体UM05-C9; CEACAM5/6抗体UM05-C9
As for B4, the concentration giving a half-maximal response (EC50) in [7] was 0.637 µg/mL; in test [8] it was 0.399 nM.
